Experimental data as given in patent US20050175986A1 (SMIT KLINE BEECHAM, published 2005).

Target: T1, recombinant F protein of Respiratory Syncytial Virus (Respiratory Syncytial Virus, UniProt P03420 26-524)
T1 construct: Recombinant F-protein as described in P. Tsui et al, J. Immunol; 157:772-780 (1996); Coated on plastic in the ELISAs; also called recombinant RSV F-protein; rF protein
Assay: solid phase ELISA on coated recombinant F protein
Experimental: Binding of the Gλ-1 mABs to recombinant F protein was measured in a standard solid phase ELISA. Antigen diluted in PBS pH 7.0 was adsorbed onto polystyrene round-bottom microplates (Dynatech, Immunolon II) for 18 hours. Wells were then aspirated and blocked with 0.5% boiled casein (BC) in PBS containing 1% Tween 20 […] for two hours. Antibodies (50 μl/well) were diluted to varying concentrations in PBS/0.5% BC containing 0.025% Tween 20 and incubated in antigen coated wells for one hour. Plates were washed three times with PBS containing 0.05% Tween 20, using a Titertek 320 microplate washer, followed by addition of HRP-labelled protein A/G (50 μl) diluted 1:5000. After washing three times, TMBlue substrate (TSI, #TM102) was added and plates were incubated an additional 15 minutes. The reaction was stopped by addition of 1 N H₂SO₄ and absorbance read at 450 nm using a Biotek ELISA reader.
Binding of the Gλ-1 mABs to rF protein was inhibited by mAb B4, for which the F protein amino acids critical for antigen recognition are amino acids 268, 272 and 275 of SEQ ID NO: 20). Binding of the Gλ-1 mABs to rF protein was not inhibited by mAb RSMU19, for which F protein amino acid 429 of SEQ ID NO: 20 is critical for antigen recognition.

T1 sequence (P03420 26-524 limits assumed): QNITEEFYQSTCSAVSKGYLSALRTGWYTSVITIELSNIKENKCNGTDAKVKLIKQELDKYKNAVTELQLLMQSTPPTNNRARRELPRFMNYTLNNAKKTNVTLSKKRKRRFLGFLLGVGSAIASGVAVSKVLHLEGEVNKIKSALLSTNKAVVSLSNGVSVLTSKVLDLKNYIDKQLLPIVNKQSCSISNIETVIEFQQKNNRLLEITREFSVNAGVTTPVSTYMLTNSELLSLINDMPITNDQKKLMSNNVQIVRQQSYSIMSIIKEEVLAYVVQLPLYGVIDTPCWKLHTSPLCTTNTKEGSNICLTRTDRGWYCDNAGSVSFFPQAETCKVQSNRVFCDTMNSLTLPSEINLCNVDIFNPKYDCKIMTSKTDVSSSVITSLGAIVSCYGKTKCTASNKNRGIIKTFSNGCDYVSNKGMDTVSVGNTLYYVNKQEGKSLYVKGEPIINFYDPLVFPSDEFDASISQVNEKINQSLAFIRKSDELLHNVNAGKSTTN

B1: Gλ-1B monoclonal antibody (antibody, human IgG1, V domains shown)
VH: EVQLVESGGGLVQPGGSLRLSCAASGVSLSGYKMNWVRQAPGKGLEWVSSITGMSNYIHYSDSVKGRFTISRDNAMNSLYLQMNSLTAEDTGVYYCATQPGELAPFDHWGQGTLVTVSS
VL: QSVLTQPPSVSAAPGQKVTISCTGSSSNLGAGYDVHWYRQLPGTAPKLLIYDNNNRPSGVPDRFSGSKSGPSASLAISGLQAEDEADYYCQSYDSSLNGYVFGTGTQLTVLG
notes: Full length human IgG1, lambda light chain; made in COS and CHO cells; also called Gλ-1 mAB B; mAB B
For B1, the EC50 was 2.6 ng/mL.
